In patent publication US20190233540A1 (JUNSHI BIOSCIENCES, published 2019):
Positions count from the first letter of the chain named.

B1: humanized anti-PCSK9 antibody clone 32 (antibody, V domains shown)
VH: QVQLQESGPGLVKPSQTLSLTCTVSGFSISSYGIHWIRQSPGKGLEWIGVIWRGGITDYNAPFMSRVTISKDNSKNQVSFKLSSVTAADTAVYYCANHRDWGQGTLVTVSS
VL: DIQMTQSPSSLSASVGDRVTITCQASQDINKYIDWYQHKPGKAPKLLIHYASTLQPGVPSRFSGSGSGRDYTFTISSLQPEDIATYYCLQYDDLWTFGQGTKVEIK
notes: also called humanized antibody
B2: humanized anti-PCSK9 antibody clone 77 (antibody, V domains shown)
VH: B1 VH with I34V, I56S, P62A
VL: B1 VL
notes: It shares its light chain with clone 32; also called humanized antibody
B3: 1B11 murine-derived anti-PCSK9 monoclonal antibody (antibody, V domains shown)
VH: QVQLQQSGAVLVRPGTSIKVSCKASGYAFTNYLIEWIKKRPGQGLEWIGMINPGSGDTNFNEKFKAKATLTADKSSTTAYMQLNSLTFDDSAVYFCARSSQLGLPYWGQGTLVTVSA
VL: DIQMTQSPASLSASVGETVTITCRASENIYSYLAWYQQKQENSPQLLVYNAYTLADGVPSRFSGSGSGTQFSLKIISLQPEDFGNYYCQHHYRTPPTFGGGTKLEIK
notes: Mouse hybridoma antibody
B4: 1B5 murine-derived anti-PCSK9 monoclonal antibody (antibody, V domains shown)
VH: DVQLQESGPGLVKPSQSLSLTCTVTGYSITSDYAWNWIRQFPGNKVEWMGYISYSGSSSYNPSLKGRISITRDTSKNQFFLQLNSVTTEDTATYYCARFYYRFDAYFDSWGQGTTLTVSS
VL: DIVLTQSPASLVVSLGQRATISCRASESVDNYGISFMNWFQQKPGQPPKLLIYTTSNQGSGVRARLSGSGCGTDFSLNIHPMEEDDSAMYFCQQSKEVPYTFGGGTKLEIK
notes: Mouse hybridoma antibody
B5: 3G12 murine-derived anti-PCSK9 monoclonal antibody (antibody, V domains shown)
VH: QVQLKQSGPSLLQPSQSLSITCTVSGFSLTSYGIHWVRQSPGKGLEWLGVIWRGGITDYNAPFMSRLNITKDNSKNQVFFKMNSLQVDDTAIYYCANHRDWGQGTLVTVSA
VL: DIQMTQSPSSLSASLGGKVTITCKASQDINKYIDWYQHKPGKSPRLLIHYASTLQPGIPSRFSGSGSGRDYSFSISNLEPEDIATYYCLQYDDLWTFGGGTKLEIK
notes: Mouse hybridoma antibody
B6: 3G12 chimeric antibody (antibody, V domains shown)
VH: B5 VH
VL: B5 VL
B7: 1A5 murine-derived anti-PCSK9 monoclonal antibody (antibody, V domains shown)
VH: B5 VH with L12V, I34V, I56S, P62A, N68S, N76S, V87A
VL: B5 VL with G17D, S43G, A51T, L89V
notes: Mouse hybridoma antibody
B8: 2B12 murine-derived anti-PCSK9 monoclonal antibody (antibody, V domains shown)
VH: DVQLQESGPGLVKPSQSLSLTCSVTGFSITSDYAWNWIRQFPGNKLEWMGYISYSGTTNYNPSLKSRISITRDTSKNQFFLHLNSVITEDTATYYCARREGHYSWFPYWGQGTLVTVSA
VL: DIVLTQSPASLAVSLGQRATISCRASESVEYYGTSLMHWYQHKPGQTPKLLIYSGSNVESGVPARFSGSGSGTDFSLNIHPVEEDDIAMYFCQQSREVPSTFGGGTKLEIK
notes: Mouse hybridoma antibody

Assays:
[1] = molecular target: T1, human PCSK9 D347Y recombinant protein (human, UniProt Q8NBP7 31-692, biotin label (sites not given) in Examples 3 and 9); assay: cell-based or functional assay
T1 sequence (Q8NBP7 31-692 D374Y): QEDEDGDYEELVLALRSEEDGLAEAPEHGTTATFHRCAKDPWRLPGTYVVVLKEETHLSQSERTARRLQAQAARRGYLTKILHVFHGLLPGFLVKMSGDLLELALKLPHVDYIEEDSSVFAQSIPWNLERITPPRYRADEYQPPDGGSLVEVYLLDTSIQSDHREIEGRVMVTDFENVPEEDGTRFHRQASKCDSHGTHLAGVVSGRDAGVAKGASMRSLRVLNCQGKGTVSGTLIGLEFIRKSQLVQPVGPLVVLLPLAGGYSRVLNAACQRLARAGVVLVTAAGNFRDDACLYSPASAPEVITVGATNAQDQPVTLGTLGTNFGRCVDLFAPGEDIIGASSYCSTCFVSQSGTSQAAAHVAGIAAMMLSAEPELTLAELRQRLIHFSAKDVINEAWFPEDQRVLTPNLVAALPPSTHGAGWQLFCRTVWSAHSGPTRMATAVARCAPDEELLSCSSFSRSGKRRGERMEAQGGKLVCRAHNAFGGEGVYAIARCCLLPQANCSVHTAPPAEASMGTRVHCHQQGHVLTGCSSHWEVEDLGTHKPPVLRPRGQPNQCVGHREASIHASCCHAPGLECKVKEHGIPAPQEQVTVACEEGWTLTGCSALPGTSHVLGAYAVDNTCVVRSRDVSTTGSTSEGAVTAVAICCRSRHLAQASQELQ

[2] = molecular target: T2, human PCSK9 recombinant protein (human PCSK9 extracellular region protein) (human, UniProt Q8NBP7 31-692, biotin label (biotin-xx-NHS, sites not stated) in the ELISA and flow cytometry assays); assay: ELISA, biotin-labeled PCSK9 at 0.2 ug/ml captured on streptavidin, antibody titrated; unit taken from the axis LOG (pg/mL)
T2 construct: extracellular domain; The tag from the vector pSec CAGA2 ECD is not described; PCSK9 is a secreted protein; also called hPCSK9; HPCSK9
T2 sequence (Q8NBP7 31-692 limits assumed): as the sequence (Q8NBP7 31-692 D374Y) above, with Y344D counted along it

[3] = molecular target: T2, human PCSK9 recombinant protein (human …); assay: ForteBio instrument (BLI)
murine-derived PCSK9 = murine-derived PCSK9 (murine, UniProt Q80W65 35-694, limits assumed); assay: ELISA, species cross-reactivity
Chain of murine-derived PCSK9 (Q80W65 35-694 limits assumed): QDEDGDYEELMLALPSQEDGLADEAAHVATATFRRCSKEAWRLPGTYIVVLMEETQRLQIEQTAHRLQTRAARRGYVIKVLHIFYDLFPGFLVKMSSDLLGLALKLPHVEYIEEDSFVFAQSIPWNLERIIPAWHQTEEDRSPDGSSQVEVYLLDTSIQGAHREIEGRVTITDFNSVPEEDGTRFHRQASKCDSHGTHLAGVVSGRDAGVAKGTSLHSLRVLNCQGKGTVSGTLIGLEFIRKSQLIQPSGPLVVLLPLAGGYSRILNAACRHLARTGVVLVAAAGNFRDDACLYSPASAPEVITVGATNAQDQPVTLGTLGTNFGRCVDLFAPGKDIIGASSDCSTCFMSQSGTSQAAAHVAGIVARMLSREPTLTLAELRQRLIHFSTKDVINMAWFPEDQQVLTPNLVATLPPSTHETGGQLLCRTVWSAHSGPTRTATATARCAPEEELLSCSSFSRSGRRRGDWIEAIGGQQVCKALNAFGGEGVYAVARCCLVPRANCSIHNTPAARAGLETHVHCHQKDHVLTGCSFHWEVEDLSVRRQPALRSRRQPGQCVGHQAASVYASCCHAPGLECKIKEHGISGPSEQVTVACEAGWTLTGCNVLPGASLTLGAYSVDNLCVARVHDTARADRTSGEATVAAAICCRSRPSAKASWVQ

[4] = molecular target: T1, human PCSK9 D347Y recombinant protein; assay: ELISA, antibody coated at 1 ug/ml, biotin-labeled PCSK9 (D347Y by the legend) titrated, HRP-streptavidin; the concentration is that of PCSK9; unit taken from the axis log(pg/ml)
[5] = molecular target: T1, human PCSK9 D347Y recombinant protein; assay: competition ELISA, biotin-labeled PCSK9 (D347Y by the legend) captured on streptavidin, antibody titrated in 200 ng/ml reference antibody, bound reference antibody detected with anti-human IgG-Fc; competitor: reference antibody; unit taken from the axis log(ng/ml); the curve is nearly flat (OD450 about 1.2 to 1.1), ambiguous fit
[6] = molecular target: T1, human PCSK9 D347Y recombinant protein; assay: ELISA, biotin-labeled PCSK9 (D347Y by the legend) at 2 ug/ml captured on streptavidin, antibody titrated; unit taken from the axis log(ng/ml)
[7] = molecular target: T1, human PCSK9 D347Y recombinant protein; assay: competition ELISA, biotin-labeled PCSK9 (D347Y by the legend) captured on streptavidin, antibody titrated in 200 ng/ml reference antibody, bound reference antibody detected with anti-human IgG-Fc; competitor: reference antibody; unit taken from the axis log(ng/ml)
[8] = molecular target: T1, human PCSK9 D347Y recombinant protein; assay: cell-based or functional assay; remark: listed apart in the source
[9] = molecular target: T2, human PCSK9 recombinant protein (human …); assay: ELISA, biotin-labeled PCSK9 at 2 ug/ml captured on streptavidin, antibody titrated; unit taken from the axis log(pg/ml)

Row | Binder | IC50, LDL uptake of HepG2 cells (Dil-LDL fluorescence) [1] | EC50 [2] | IC50, LDL uptake of HepG2 cells [1] | Kd [3] | binding result (murine-derived PCSK9) | EC50 [4] | IC50 [5] | EC50 [6] | IC50 [7] | IC50(nM), LDL uptake of HepG2 cells (FL-LDL fluorescence) [8] | EC50 [9]
1 | B1 | ~1 µg/mL | 0.00516 µg/mL |  |  |  |  |  |  |  |  | 
2 | B2 | ~1 µg/mL | 0.00481 µg/mL |  |  |  |  |  |  |  |  | 
3 | B3 |  |  | ~1 µg/mL | 4.7 nM | no binding | 0.143 µg/mL | ~0.227 µg/mL |  |  |  | 
4 | B4 |  |  | ~1 µg/mL | 0.9 nM |  | 0.666 µg/mL |  | 0.318 µg/mL | 0.675 µg/mL |  | 
5 | B5 |  |  | ~1 µg/mL | 0.28 nM |  | 0.0835 µg/mL |  | 0.223 µg/mL | 0.0766 µg/mL | 5.5 nM | 0.078 µg/mL
6 | B6 |  |  |  |  |  |  |  |  |  |  | 0.0338 µg/mL
7 | B7 |  |  | ~1 µg/mL | 0.91 nM |  | 0.752 µg/mL |  | 0.251 µg/mL | 0.808 µg/mL |  | 
8 | B8 |  |  | ~1 µg/mL | 0.49 nM |  | 0.0389 µg/mL |  | 0.023 µg/mL |  |  | 
